Changes are numbered by the printed parent chain. Names and notes keep the numbering of the source. Values joined by “and” are separate entries in the source; they are usually repeats but may differ in a detail not shown here. Identical values can stand only once.
B1: UGDH S316D, phosphomimetic point mutant, recombinant (enzyme, human, UniProt O60701 1-494, looked up)
chain: MFEIKKICCIGAGYVGGPTCSVIAHMCPEIRVTVVDVNESRINAWNSPTLPIYEPGLKEVVESCRGKNLFFSTNIDDAIKEADLVFISVNTPTKTYGMGKGRAADLKYIEACARRIVQNSNGYKIVTEKSTVPVRAAESIRRIFDANTKPNLNLQVLSNPEFLAEGTAIKDLKNPDRVLIGGDETPEGQRAVQALCAVYEHWVPREKILTTNTWSSELSKLAANAFLAQRISSINSISALCEATGADVEEVATAIGMDQRIGNKFLKASVGFGGSCFQKDVLNLVYLCEALNLPEVARYWQQVIDMNDYQRRRFADRIIDSLFNTVTDKKIAILGFAFKKDTGDTRESSSIYISKYLMDEGAHLHIYDPKVPREQIVVDLSHPGVSEDDQVSRLVTISKDPYEACDGAHAVVICTEWDMFKELDYERIHKKMLKPAFIFDGRRVLDGLHNELQTIGFQIETIGKKVSSKRIPYAPSGEIPKFSLQDPPNKKPKV
notes: UDP-glucose 6-dehydrogenase, human
B2: UGDH S316A, phosphodeficient point mutant, recombinant (enzyme, human, UniProt O60701 1-494, looked up)
chain: B1 chain with D316A
notes: as for B1
B3: UGDH Δ132, hexameric mutant (enzyme, human)
chain: MFEIKKICCIGAGYVGGPTCSVIAHMCPEIRVTVVDVNESRINAWNSPTLPIYEPGLKEVVESCRGKNLFFSTNIDDAIKEADLVFISVNTPTKTYGMGKGRAADLKYIEACARRIVQNSNGYKIVTEKSTPVRAAESIRRIFDANTKPNLNLQVLSNPEFLAEGTAIKDLKNPDRVLIGGDETPEGQRAVQALCAVYEHWVPREKILTTNTWSSELSKLAANAFLAQRISSINSISALCEATGADVEEVATAIGMDQRIGNKFLKASVGFGGSCFQKDVLNLVYLCEALNLPEVARYWQQVIDMNDYQRRRFASRIIDSLFNTVTDKKIAILGFAFKKDTGDTRESSSIYISKYLMDEGAHLHIYDPKVPREQIVVDLSHPGVSEDDQVSRLVTISKDPYEACDGAHAVVICTEWDMFKELDYERIHKKMLKPAFIFDGRRVLDGLHNELQTIGFQIETIGKKV
notes: construct of earlier work; Named only once, as a control of the gel filtration
B4: UGDH T325D, obligate dimer mutant (enzyme, human)
chain: MFEIKKICCIGAGYVGGPTCSVIAHMCPEIRVTVVDVNESRINAWNSPTLPIYEPGLKEVVESCRGKNLFFSTNIDDAIKEADLVFISVNTPTKTYGMGKGRAADLKYIEACARRIVQNSNGYKIVTEKSTVPVRAAESIRRIFDANTKPNLNLQVLSNPEFLAEGTAIKDLKNPDRVLIGGDETPEGQRAVQALCAVYEHWVPREKILTTNTWSSELSKLAANAFLAQRISSINSISALCEATGADVEEVATAIGMDQRIGNKFLKASVGFGGSCFQKDVLNLVYLCEALNLPEVARYWQQVIDMNDYQRRRFASRIIDSLFNDVTDKKIAILGFAFKKDTGDTRESSSIYISKYLMDEGAHLHIYDPKVPREQIVVDLSHPGVSEDDQVSRLVTISKDPYEACDGAHAVVICTEWDMFKELDYERIHKKMLKPAFIFDGRRVLDGLHNELQTIGFQIETIGKKV
notes: UDP-glucose 6-dehydrogenase, human, with T325D; also called UGDH T325D dimeric mutant
B5: UDP-glucose 6-dehydrogenase (UGDH), human, wild type, recombinant (enzyme, UniProt O60701 1-494, looked up)
chain: B1 chain with D316S
notes: UDP-glucose 6-dehydrogenase, human; In solution a mix of hexamer (trimer of dimers) and dimer; also called UGDH WT; WT UGDH

Target: the molecule itself
Assay: SEC; gel filtration chromatography of the purified enzyme with substrate and cofactor added (holocomplex)

Row | Protein | stoichiometry N
1 | B1 | 6
2 | B2 | 6

Target: the molecule itself
Assay: SEC; gel filtration chromatography of the purified enzyme, before addition of substrate and cofactor; hexamer and dimer peaks

Row | Protein | stoichiometry N
3 | B3 | 6
4 | B4 | 2
5 | B5 | 6 and 2
6 | B1 | 2
7 | B2 | 2
